# Test results published in patent EP4682162A1 (Neowise Biotechnology Co., Ltd., dated 2026).
# Positions count from the first letter of the chain named.
# B1: nwTCR-2170 (TCR, V domains shown)
# V domain 1: GQQLNQSPQSMFIQEGEDVSMNCTSSSIFNTWLWYKQDPGEGPVLLIALYKAGELTSNGRLTAQFGITRKDSFLNISASIPSDVGIYFCAGQASGTYKYIFGTGTRLKVLA
# V domain 2: EAQVTQNPRYLITVTGKKLTVTCSQNMNHEYMSWYRQDPGLGLRQIYYSMNVEVTDKGDVPEGYKVSRKEKRNFPLILESPSPNQTSLYFCASSSGTSDEQYFGPGTRLTVTE
# notes: TCR on T cells
# B2: nwTCR-2228 (TCR, V domains shown)
# V domain 1: QKEVEQNSGPLSVPEGAIASLNCTYSDRGSQSFFWYRQYSGKSPELIMFIYSNGDKEDGRFTAQLNKASQYVSLLIRDSQPSDSATYLCAGHTGNQFYFGTGTSLTVIP
# V domain 2: EPEVTQTPSHQVTQMGQEVILRCVPISNHLYFYWYRQILGQKVEFLVSFYNNEISEKSEIFDDQFSVERPDGSNFTLKIRSTKLEDSAMYFCASREDGYEQYFGPGTRLTVTE
# notes: TCR on T cells
# B3: nwTCR-2285 (TCR, V domains shown)
# V domain 1: KNEVEQSPQNLTAQEGEFITINCSYSVGISALHWLQQHPGGGIVSLFMLSSGKKKHGRLIATINIQEKHSSLHITASHPRDSAVYICALNSDSNYQLIWGAGTKLIIKP
# V domain 2: B1 V domain 2 with S93T, S95P, S98L, D99Y
# notes: TCR on T cells
# B4: nwTCR-2286 (TCR, V domains shown)
# V domain 1: GQQLNQSPQSMFIQEGEDVSMNCTSSSIFNTWLWYKQDPGEGPVLLIALYKAGELTSNGRLTAQFGITRKDSFLNISASIPSDVGIYFCAGPEDDKIIFGKGTRLHILP
# V domain 2: DSGVTQTPKHLITATGQRVTLRCSPRSGDLSVYWYQQSLDQGLQFLIQYYNGEERAKGNILERFSAQQFPDLHSELNLSSLELGDSALYFCASSPWLQGGNEQFFGPGTRLTVLE
# notes: TCR on T cells
# B5: nwTCR-2316 (TCR, V domains shown)
# V domain 1: TQLLEQSPQFLSIQEGENLTVYCNSSSVFSSLQWYRQEPGEGPVLLVTVVTGGEVKKLKRLTFQFGDARKDSSLHITAAQPGDTGLYLCAGVDNYGQNFVFGPGTRLSVLP
# V domain 2: DAGVIQSPRHEVTEMGQEVTLRCKPISGHNSLFWYRQTMMRGLELLIYFNNNVPIDDSGMPEDRFSAKMPNASFSTLKIQPSEPRDSAVYFCASSIAALGFGELFFGEGSRLTVLE
# notes: TCR on T cells
# B6: nwTCR-2383 (TCR, V domains shown)
# V domain 1: GIQVEQSPPDLILQEGANSTLRCNFSDSVNNLQWFHQNPWGQLINLFYIPSGTKQNGRLSATTVATERYSLLYISSSQTTDSGVYFCAVMPSGTYKYIFGTGTRLKVLA
# V domain 2: EAQVTQNPRYLITVTGKKLTVTCSQNMNHEYMSWYRQDPGLGLRQIYYSMNVEVTDKGDVPEGYKVSRKEKRNFPLILESPSPNQTSLYFCASSPSSGYNEQFFGPGTRLTVLE
# notes: TCR on T cells
# B7: nwTCR-2418 (TCR, V domains shown)
# V domain 1: DQQVKQNSPSLSVQEGRISILNCDYTNSMFDYFLWYKKYPAEGPTFLISISSIKDKNEDGRFTVFLNKSAKHLSLHIVPSQPGDSAVYFCAASGVRGQNFVFGPGTRLSVLP
# V domain 2: B4 V domain 2 with Q98A, N101R, F104Y, L114T
# notes: TCR on T cells
# B8: nwTCR-2523 (TCR, V domains shown)
# V domain 1: RKEVEQDPGPFNVPEGATVAFNCTYSNSASQSFFWYRQDCRKEPKLLMSVYSSGNEDGRFTAQLNRASQYISLLIRDSKLSDSATYLCVVNRGSQGNLIFGKGTKLSVKP
# V domain 2: DAGVTQSPTHLIKTRGQQVTLRCSPKSGHDTVSWYQQALGQGPQFIFQYYEEEERQRGNFPDRFSGHQFPNYSSELNVNALLLGDSALYLCASSLVDYEQYFGPGTRLTVTE
# notes: TCR on T cells
# B9: nwTCR-1906 (TCR, V domains shown)
# V domain 1: RKEVEQDPGPFNVPEGATVAFNCTYSNSASQSFFWYRQDCRKEPKLLMSVYSSGNEDGRFTAQLNRASQYISLLIRDSKLSDSATYLCVVTQAGTALIFGKGTTLSVSS
# V domain 2: not shown
# notes: TCR on T cells
# B10: nwTCR-2555 (TCR, V domains shown)
# V domain 1: AQSVSQHNHHVILSEAASLELGCNYSYGGTVNLFWYVQYPGQHLQLLLKYFSGDPLVKGIKGFEAEFIKSKFSFNLRKPSVQWSDTAEYFCAVKMDSSYKLIFGSGTRLLVRP
# V domain 2: DGGITQSPKYLFRKEGQNVTLSCEQNLNHDAMYWYRQDPGQGLRLIYYSQIVNDFQKGDIAEGYSVSREKKESFPLTVTSAQKNPTAFYLCASLGLNYNEQFFGPGTRLTVLE
# notes: TCR on T cells
# B11: nwTCR-2583 (TCR, V domains shown)
# V domain 1: GQSLEQPSEVTAVEGAIVQINCTYQTSGFYGLSWYQQHDGGAPTFLSYNALDGLEETGRFSSFLSRSDSYGYLLLQELQMKDSASYFCALGTEDKIIFGKGTRLHILP
# V domain 2: EAQVTQNPRYLITVTGKKLTVTCSQNMNHEYMSWYRQDPGLGLRQIYYSMNVEVTDKGDVPEGYKVSRKEKRNFPLILESPSPNQTSLYFCASRISLGANYGYTFGSGTRLTVVE
# notes: TCR on T cells
# B12: nwTCR-2718 (TCR, V domains shown)
# V domain 1: GQQLNQSPQSMFIQEGEDVSMNCTSSSIFNTWLWYKQDPGEGPVLLIALYKAGELTSNGRLTAQFGITRKDSFLNISASIPSDVGIYFCAGFSQGGSEKLVFGKGTKLTVNP
# V domain 2: B4 V domain 2 with L97T, Q98A, E102T, Q103I, F104Y, P107E, T109S, R110W, L114V
# notes: TCR on T cells
# B13: nwTCR-2719 (TCR, V domains shown)
# V domain 1: B6 V domain 1 with M90L, P91A, S92P
# V domain 2: B1 V domain 2 with S95W, T97S, S98G, D99Y
# notes: TCR on T cells
# B14: nwTCR-2720 (TCR, V domains shown)
# V domain 1: SQQGEEDPQALSIQEGENATMNCSYKTSINNLQWYRQNSGRGLVHLILIRSNEREKHSGRLRVTLDTSKKSSSLLITASRAADTASYFCATDLSGAGSYQLTFGKGTKLSVIP
# V domain 2: B6 V domain 2 with P95L, S96G, S97T, Y99F, N100G, Q102L, P106E, T108S
# notes: TCR on T cells
# B15: nwTCR-2793 (TCR, V domains shown)
# V domain 1: QKEVEQNSGPLSVPEGAIASLNCTYSDRVSQSFFWYRQYSGKSPELIMSIYSNGDKEDGRFTAQLNKASQYVSLLIRDSQPSDSATYLCAVVSSNDYKLSFGAGTTVTVRA
# V domain 2: B1 V domain 2 with S95P, S98I, D99G, Q101L, Y102F, P105E, T107S, T112L
# notes: TCR on T cells
# B16: nwTCR-2915 (TCR, V domains shown)
# V domain 1: GESVGLHLPTLSVQEGDNSIINCAYSNSASDYFIWYKQESGKGPQFIIDIRSNMDKRQGQRVTVLLNKTVKHLSLQIAATQPGDSAVYFCAESYGQKLLFARGTMLKVDL
# V domain 2: B1 V domain 2 with S95F, G96W, T97S, S98A, D99G, Q101L, Y102F, P105E, T107S, T112L
# notes: TCR on T cells
# B17: nwTCR-2916 (TCR, V domains shown)
# V domain 1: GQQLNQSPQSMFIQEGEDVSMNCTSSSIFNTWLWYKQDPGEGPVLLIALYKAGELTSNGRLTAQFGITRKDSFLNISASIPSDVGIYFCAGQDDGGSQGNLIFGKGTKLSVKP
# V domain 2: DSGVTQTPKHLITATGQRVTLRCSPRSGDLSVYWYQQSLDQGLQFLIQYYNGEERAKGNILERFSAQQFPDLHSELNLSSLELGDSALYFCASSPWTSGGDGELFFGEGSRLTVLE
# notes: TCR on T cells
# B18: nwTCR-1953 (TCR, V domains shown)
# V domain 1: DAKTTQPNSMESNEEEPVHLPCNHSTISGTDYIHWYRQLPSQGPEYVIHGLTSNVNNRMASLAIAEDRKSSTLILHRATLRDAAVYYCILRAGGSGDKLTFGTGTRLAVRP
# V domain 2: DTEVTQTPKHLVMGMTNKKSLKCEQHMGHRAMYWYKQKAKKPPELMFVYSYEKLSINESVPSRFSPECPNSSLLNLHLHALQPEDSALYLCASSQDPFWGAGELFFGEGSRLTVLE
# notes: TCR on T cells
# B19: nwTCR-2970 (TCR, V domains shown)
# V domain 1: QQPVQSPQAVILREGEDAVINCSSSKALYSVHWYRQKHGEAPVFLMILLKGGEQKGHDKISASFNEKKQQSSLYLTASQLSYSGTYFCGTEFRNDYKLSFGAGTTVTVRA
# V domain 2: B6 V domain 2 with S96G, S97T, Y99G, N100Y, E101G, Q102Y, F103T, P106S, L113V
# notes: TCR on T cells
# B20: nwTCR-3028 (TCR, V domains shown)
# V domain 1: SQQGEEDPQALSIQEGENATMNCSYKTSINNLQWYRQNSGRGLVHLILIRSNEREKHSGRLRVTLDTSKKSSSLLITASRAADTASYFCATDVKSSYKLIFGSGTRLLVRP
# V domain 2: AAGVIQSPRHLIKEKRETATLKCYPIPRHDTVYWYQQGPGQDPQFLISFYEKMQSDKGSIPDRFSAQQFSDYHSELNMSSLELGDSALYFCASSLGLLGNEQFFGPGTRLTVLE
# notes: TCR on T cells
# B21: nwTCR-3095 (TCR, V domains shown)
# V domain 1: DQQVKQNSPSLSVQEGRISILNCDYTNSMFDYFLWYKKYPAEGPTFLISISSIKDKNEDGRFTVFLNKSAKHLSLHIVPSQPGDSAVYFCAAFASDSNYQLIWGAGTKLIIKP
# V domain 2: DTAVSQTPKYLVTQMGNDKSIKCEQNLGHDTMYWYKQDSKKFLKIMFSYNNKELIINETVPNRFSPKSPDKAHLNLHINSLELGDSAVYFCASSPWTSGGNGELFFGEGSRLTVLE
# notes: TCR on T cells
# B22: nwTCR-3125 (TCR, V domains shown)
# V domain 1: QKEVEQNSGPLSVPEGAIASLNCTYSDRVSQSFFWYRQYSGKSPELIMSIYSNGDKEDGRFTAQLNKASQYVSLLIRDSQPSDSATYLCALVSGTYKYIFGTGTRLKVLA
# V domain 2: DTAVSQTPKYLVTQMGNDKSIKCEQNLGHDTMYWYKQDSKKFLKIMFSYNNKELIINETVPNRFSPKSPDKAHLNLHINSLELGDSAVYFCASSPGLAYEQYFGPGTRLTVTE
# notes: TCR on T cells
# Target: T1, labeled peptide-MHC (HLA-A*02:01) tetramer (…-HLA-A*02:01 tetramer) (human)
# T1 construct: Labeled tetramer used for flow cytometry staining; also called pMHC; pMHC tetramer
# Test: tetramer staining of sorted T cell clones, flow cytometry
row,Binder,binding result
1,B1,binds
2,B2,binds
3,B3,binds
4,B4,binds
5,B5,binds
6,B6,binds
7,B7,binds
8,B8,binds
9,B9,binds
10,B10,binds
11,B11,binds
12,B12,binds
13,B13,binds
14,B14,binds
15,B15,binds
16,B16,binds
17,B17,binds
18,B18,binds
19,B19,binds
20,B20,binds
21,B21,binds
22,B22,binds
